In the data set the target is T1, ΔNp63α R227Q (UniProt Q9H3D4-2 1-586, R172Q).
T1 sequence: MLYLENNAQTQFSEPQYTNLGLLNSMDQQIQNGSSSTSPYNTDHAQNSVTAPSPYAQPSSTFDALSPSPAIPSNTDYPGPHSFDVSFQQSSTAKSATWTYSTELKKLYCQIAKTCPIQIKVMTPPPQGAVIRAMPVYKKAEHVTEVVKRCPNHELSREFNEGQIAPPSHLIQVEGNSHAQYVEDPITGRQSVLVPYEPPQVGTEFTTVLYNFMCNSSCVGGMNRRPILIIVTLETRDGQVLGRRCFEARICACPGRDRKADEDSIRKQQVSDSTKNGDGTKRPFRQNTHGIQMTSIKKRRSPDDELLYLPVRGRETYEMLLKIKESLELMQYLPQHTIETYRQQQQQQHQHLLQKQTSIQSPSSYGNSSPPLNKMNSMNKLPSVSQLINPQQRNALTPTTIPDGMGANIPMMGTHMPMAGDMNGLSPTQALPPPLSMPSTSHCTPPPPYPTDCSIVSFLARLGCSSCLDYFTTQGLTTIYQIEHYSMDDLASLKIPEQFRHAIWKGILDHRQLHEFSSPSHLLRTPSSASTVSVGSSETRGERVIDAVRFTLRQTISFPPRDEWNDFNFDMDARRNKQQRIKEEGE
Put plainly: pull-down; not significantly different from WT; SPR DBD-TD: 25 mM HEPES pH 7.5, 200 mM NaCl, 0.5 mM TCEP, 0.005% Tween-20; SPR DBD: 10 mM HEPES pH 7.5, 150 mM NaCl, 0.2 mM TCEP, 0.005% Tween-20; random-sequence dsDNA (S12/S13) as reference cell; pull-down: 50 mM Tris pH 8.0, 150 mM NaCl, 0.1% Tween-20, 4 °C. The following applies: protein: ivt, tags: Myc, chain copies: 4, blunt.

B1: p21 RE (pulldown) (dsDNA)
DNA 1: GCCAGGAACATGTCCCAACATGTTGAGCCG
DNA 2: CGGCTCAACATGTTGGGACATGTTCCTGGC
As to B1, the binding result (label: 5' biotin on S8) is “binds”.

B2: KRT14 RE (pulldown) (dsDNA)
DNA 1: AAAATATGACAGACATGATGAGGCGGATGA
DNA 2: TCATCCGCCTCATCATGTCTGTCATATTTT
Take B2: the binding result (label: 5' biotin on S10) is “binds”.

For the origin of these results see PMC10113246, “Disease-related p63 DBD mutations impair DNA binding by distinct mechanisms and varying degree”.
